Literature values in article PMC1297595.

Target: CD26 (Homo sapiens) (UniProt P27487)
Sequence of UniProt P27487 (P27487 39-766): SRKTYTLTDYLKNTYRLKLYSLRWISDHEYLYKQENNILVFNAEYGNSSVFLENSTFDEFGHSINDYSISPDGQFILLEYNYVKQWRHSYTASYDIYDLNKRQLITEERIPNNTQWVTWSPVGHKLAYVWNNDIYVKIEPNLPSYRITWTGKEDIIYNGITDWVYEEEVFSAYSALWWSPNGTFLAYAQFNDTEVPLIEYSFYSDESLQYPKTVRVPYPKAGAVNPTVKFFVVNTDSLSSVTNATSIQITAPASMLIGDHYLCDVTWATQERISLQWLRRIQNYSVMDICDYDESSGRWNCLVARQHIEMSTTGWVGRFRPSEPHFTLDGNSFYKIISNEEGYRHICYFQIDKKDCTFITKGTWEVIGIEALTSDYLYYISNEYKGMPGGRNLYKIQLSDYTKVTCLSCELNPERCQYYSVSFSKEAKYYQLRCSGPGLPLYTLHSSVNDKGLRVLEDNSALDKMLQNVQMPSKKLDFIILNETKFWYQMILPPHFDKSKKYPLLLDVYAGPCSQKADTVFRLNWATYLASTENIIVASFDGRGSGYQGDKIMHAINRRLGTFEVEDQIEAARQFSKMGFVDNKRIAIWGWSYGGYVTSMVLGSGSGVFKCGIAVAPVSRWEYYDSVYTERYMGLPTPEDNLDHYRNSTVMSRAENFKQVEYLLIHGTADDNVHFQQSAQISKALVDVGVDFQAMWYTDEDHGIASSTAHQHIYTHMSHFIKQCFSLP

- Kd: 65 nM
Substance: ADA (from UniProt P00813)
